GGF-dependent transcriptional induction by farnesol (40 µM), FIG. 16D data for one substance are collected here from patent US8637237.

The target in this test is mouse RXRα (mRXRα) (mouse) (UniProt P28700). As to the kind of experiment: cell-based or functional assay.

“GGF (human glucocorticoid receptor amino terminus and DBD linked to the carboxyl terminus (LBD) of FXR) (from UniProt P04150 1-509; Q62735 188-469)” returned a GGF-dependent transcriptional induction by farnesol (40 µM), FIG. 16D of 2 fold.
